Results: the supplement of paper PMC10567573

B1: PHTF1 (parent)
chain: SRHLNSQVKKTTTRWCHIVRDSDS

Variants of: B1
Test: protein stability index of a GFP-peptide fusion (GPS, HEK-293T) (PSI 1-6); higher = more stable
Conditions: c terminus: a fixed tail appended
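Note: lentivirally expressed fusions sorted by FACS into six bins by GFP to DsRed ratio, PSI derived from sequencing read proportions per bin multiplied by bin number.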

| Variant | protein stability index |
| --- | --- |
| SRHLNSIVKKTTTRWCHIVRDSDS | 2.17 |
| SRHLNSSVKKTTTRWCHIVRDSDS | 2.8 |
| SRHLNSRVKKTTTRWCHIVRDSDS | 2 |
| SRHLNSTVKKTTTRWCHIVRDSDS | 2.82 |
| SRHLNSLVKKTTTRWCHIVRDSDS | 1.84 |
| SRHLNSQVKKTTTRWCHWVRDSDS | 2.15 |
| SRHLNSQVKKTTTRWCHAVRDSDS | 2.43 |
| SRHLNSQVKKTTTRWCHVVRDSDS | 1.73 |
| SRHLNSQVKKTTTRWCHRVRDSDS | 3.06 |
| SRHLNSQVKKTTTRWCHLVRDSDS | 3.42 |
| SRHLNSQVKKTTTRWCHPVRDSDS | 3.35 |
| SRHLNSQVKKTTTRWCHSVRDSDS | 3.95 |
| SRHLNSQVKKTTTRWCHKVRDSDS | 2.77 |
| SRHLNSQVKKTTTRWCHHVRDSDS | 2.52 |
| SRHLNSQVKKTTTRWCHQVRDSDS | 3.09 |
| SRHLNSQVKKTTTRWCHMVRDSDS | 2.34 |
| SRHLNSQVKKTTTRWCHEVRDSDS | 3.1 |
| SRHLNSQVKKTTTRWCHIVRDSDF | 2.04 |
| SRHLNSQVKKTTTRWCHIVRDSDH | 2.02 |
| SRHLNSQVKKTTTRWCHIVRDSDQ | 2.02 |
| SRHLNSQVKKTTTRWCHIVRDSDG | 2.13 |
| SRHLNSQVKKTTTRWCHIVRDSDC | 2 |
| SRHLNSQVKKTTTRWCHIVRDSDP | 2.01 |
| SRHLNSQVKKTTTRWCHIVRDSDW | 1.79 |

| Variant | protein stability index |
| --- | --- |
| SRHLNSQVKKTTTRWCHIVRDSDD | 2.75 |
| SRHLNSQVKKTTTRWCCIVRDSDS | 1.66 |
| SRHLNSQVKKTTTRWCFIVRDSDS | 2.75 |
| SRHLNSQVKKTTTRWCTIVRDSDS | 1.91 |
| SRHLNSQVKKTTTRWCGIVRDSDS | 2.65 |
| SRHLNSQVKKTTTRWCWIVRDSDS | 2.62 |
| SRHLNSQVKKTTTRWCEIVRDSDS | 1.29 |
| SRHLNSQVKKTTTRWCAIVRDSDS | 1.42 |
| SRHLNSQVKKTTTRWCIIVRDSDS | 1.65 |
| SRHLNSQVKKTTTRWCSIVRDSDS | 2.31 |
| SRHLNSQVKKTTTRWCKIVRDSDS | 2.59 |
| QRHLNSQVKKTTTRWCHIVRDSDS | 2.38 |
| TRHLNSQVKKTTTRWCHIVRDSDS | 2.09 |
| PRHLNSQVKKTTTRWCHIVRDSDS | 2.47 |
| YRHLNSQVKKTTTRWCHIVRDSDS | 2.25 |
| RRHLNSQVKKTTTRWCHIVRDSDS | 2.51 |
| HRHLNSQVKKTTTRWCHIVRDSDS | 1.46 |
| MRHLNSQVKKTTTRWCHIVRDSDS | 2.52 |
| FRHLNSQVKKTTTRWCHIVRDSDS | 1.76 |
| ERHLNSQVKKTTTRWCHIVRDSDS | 1.8 |
| SRPLNSQVKKTTTRWCHIVRDSDS | 1.64 |
| SRTLNSQVKKTTTRWCHIVRDSDS | 2.23 |
| SRKLNSQVKKTTTRWCHIVRDSDS | 2.02 |
| SRDLNSQVKKTTTRWCHIVRDSDS | 1.58 |

| Variant | protein stability index |
| --- | --- |
| SRILNSQVKKTTTRWCHIVRDSDS | 1.25 |
| SRFLNSQVKKTTTRWCHIVRDSDS | 2.77 |
| SRVLNSQVKKTTTRWCHIVRDSDS | 2.36 |
| SRELNSQVKKTTTRWCHIVRDSDS | 2.52 |
| SRHLNSQVKKTTTRWCHIDRDSDS | 3.23 |
| SRHLNSQVKKTTTRWCHIIRDSDS | 1.75 |
| SRHLNSQVKKTTTRWCHIPRDSDS | 2.42 |
| SRHLNSQVKKTTTRWCHINRDSDS | 2.55 |
| SRHLNSQVKKTTTRWCHILRDSDS | 2.35 |
| SRHLNSQVKKTTTRWCHIRRDSDS | 2.2 |
| SRHLNSQVKKTTTRWCHIGRDSDS | 2.4 |
| SRHLNSQVKKTTTRWCHIWRDSDS | 1.62 |
| SRHLNSQVKKTTTRWCHIQRDSDS | 2.81 |
| SRHLNSQVKKTTTRWPHIVRDSDS | 2.57 |
| SRHLNSQVKKTTTRWAHIVRDSDS | 1.3 |
| SRHLNSQVKKTTTRWYHIVRDSDS | 2.56 |
| SRHLNSQVKKTTTRWLHIVRDSDS | 2.79 |
| SRHLNSQVKKTTTRWWHIVRDSDS | 2.27 |
| SRHLNSQVKKTTTRWTHIVRDSDS | 2.01 |
| SRHLNSQVKKTTTRWHHIVRDSDS | 3.28 |
| SRHLNSQVKKTTTRWRHIVRDSDS | 2.86 |
| SRHLNSQVKKTTTRWSHIVRDSDS | 2.14 |
| SRHLNSQVKKTTTRWCHIVRGSDS | 1.7 |
| SRHLNSQVKKTTTRWCHIVRPSDS | 2.57 |

| Variant | protein stability index |
| --- | --- |
| SRHLNSQVKKTTTRWCHIVRRSDS | 1.55 |
| SRHLNSQVKKTTTRWCHIVRHSDS | 1.44 |
| SRHLMSQVKKTTTRWCHIVRDSDS | 1.45 |
| SRHLGSQVKKTTTRWCHIVRDSDS | 2.79 |
| SRHLQSQVKKTTTRWCHIVRDSDS | 1.92 |
| SRHLKSQVKKTTTRWCHIVRDSDS | 1.8 |
| SRHLDSQVKKTTTRWCHIVRDSDS | 2.53 |
| SHHLNSQVKKTTTRWCHIVRDSDS | 1.96 |
| SAHLNSQVKKTTTRWCHIVRDSDS | 2.38 |
| SMHLNSQVKKTTTRWCHIVRDSDS | 2.13 |
| SGHLNSQVKKTTTRWCHIVRDSDS | 1.69 |
| SLHLNSQVKKTTTRWCHIVRDSDS | 2.17 |
| SEHLNSQVKKTTTRWCHIVRDSDS | 2.35 |
| SSHLNSQVKKTTTRWCHIVRDSDS | 2.23 |
| SYHLNSQVKKTTTRWCHIVRDSDS | 2 |
| SWHLNSQVKKTTTRWCHIVRDSDS | 2.08 |
| SRHLNSQVRKTTTRWCHIVRDSDS | 2.16 |
| SRHLNSQVWKTTTRWCHIVRDSDS | 1.85 |
| SRHLNSQVFKTTTRWCHIVRDSDS | 1.83 |
| SRHLNSQVQKTTTRWCHIVRDSDS | 2.02 |
| SRHLNSQVEKTTTRWCHIVRDSDS | 2.33 |
| SRHLNSQVTKTTTRWCHIVRDSDS | 1.83 |
